Source: patent US20200231659A1 (published 2020)
Changes are numbered by the printed parent chain.

T1: cystic fibrosis transmembrane conductance regulator (CFTR) inhibitory factor (Cif) (Pseudomonas aeruginosa)
T1 chain: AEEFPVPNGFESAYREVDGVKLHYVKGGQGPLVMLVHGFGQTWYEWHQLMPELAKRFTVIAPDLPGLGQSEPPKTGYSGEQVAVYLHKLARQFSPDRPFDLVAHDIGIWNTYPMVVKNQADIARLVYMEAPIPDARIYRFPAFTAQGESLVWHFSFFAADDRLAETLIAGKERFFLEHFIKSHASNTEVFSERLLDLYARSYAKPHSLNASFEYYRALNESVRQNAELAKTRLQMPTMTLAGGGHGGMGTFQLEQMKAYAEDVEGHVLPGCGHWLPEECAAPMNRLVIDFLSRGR

B1: VHH CLONE 103 (VHH)
VHH: EVQLMESAGGLVRPGGSLRLSCVASGSIGDIYSMGWYRQAPGKQRELVATVGAGGLTDYGDSVLGRFTISRDKTKGTVSLEMNSLKPEDTAVYYCNADVSIGPTGLRVYWGQGTQVTVSS
B2: VHH CLONE 205 (VHH)
VHH: DVQLQASGGGLVQPGGSLRLSCAATGSTDRIAFMGWYRQAPGKLRELVAGITSDGRTNYADDVDVSGRFTISRDSAKNMVYLQMNSLKPEDTAVYYCNADITLAMGGLRVYWGQGTQVTVSS
B3: VHH CLONE 108 (VHH)
VHH: EVQLVESGGGLVQPGGSLRLSCEATGNFDDRGIGWFRQAPGKEREGIACITTRGRTHYAESVEGRFTISTDIANNAVYLQMNSLKPEDTAVYYCAKAIRLTTDRTQCVAFPGVSWGRGTQVTVSS
B4: VHH CLONE 213 (VHH)
VHH: EVQLVESVGGLVQPGGSLRLSCVASGNIGDIYTMGWYRQAPGKQRELVATVGDGGLTNFVDSVKGRFTISRDKSKGTVSLEMNSLKPEDTAVYYCNADVRIGPTGLRVYWGQGTQVTVSS
B5: VHH CLONE 220 (VHH)
VHH: B4 VHH with V8G, D30N, T50A, D53A, G55E, F59Y, R100S
B6: VHH CLONE 302 (VHH)
VHH: B4 VHH with E1Q, Q3K, V5Q, V8G
B7: VHH CLONE 320 (VHH)
VHH: DVQLQASGGGLVQPGGSLRLSCATSTSVFSITTLGWYRQAPGKQRELVASMKRGGDTNYADSVKGRFTISRDNARNTVFLQMNNLTTEDTAVYYCNAAILAYTGAVTNYWGQGTQVTVSS
B8: VHH CLONE 116 (VHH)
VHH: EVQLVESGGGLVQPGGSLRLSCTASGSILKIYTMDWYRQAPGKQRDLVATVSSRGDTDYTDSVKGRFTISRDDAKNTAYLQMSSLKPEDTAVYYCNFYIQSRTAPFNDYWGQGTQVTVSS

What was measured:
[1] = molecular target: T1, cystic fibrosis transmembrane …; assay: sandwich ELISA
[2] = molecular target: cystic fibrosis transmembrane conductance regulator (CFTR) inhibitory factor (Cif) (Pseudomonas aeruginosa); assay: cell-based or functional assay

Row | Binder | IC50 [1] | further results
1 | B1 | 0.0168 µg/mL | % inhibition of Cif activity, [nab] tested 0.5 mg/mL [2]: 2%
2 | B2 | 0.0207 µg/mL | % inhibition of Cif activity, [nab] tested 0.125 mg/mL [2]: 0%
3 | B3 | 0.0098 µg/mL | % inhibition of Cif activity, [nab] tested 0.275 mg/mL [2]: 19%
4 | B4 | 0.011 µg/mL | % inhibition of Cif activity, [nab] tested 0.55 mg/mL [2]: 0%
5 | B5 | 0.0211 µg/mL | % inhibition of Cif activity, [nab] tested 0.475 mg/mL [2]: 0%
6 | B6 | 0.0172 µg/mL | % inhibition of Cif activity, [nab] tested 0.5 mg/mL [2]: 0%
7 | B7 | 0.0061 µg/mL | % inhibition of Cif activity, [nab] tested 0.23 mg/mL [2]: 9%
8 | B8 | 0.0312 µg/mL | % inhibition of Cif activity, [nab] tested 0.275 mg/mL [2]: 11%
